Earlier results as cited in article PMC4567469.

Biological target: Ran (Homo sapiens) (UniProt P62826)

For “Leader protein (LE) (from UniProt P03304)”, the Kd is listed as 3 nM.
